The values below come from patent publication US20210188948A1.

Assay in all cases: cell-based or functional assay
Test [1] deals with West Nile virus (WNV) reporter virus particles (RVPs) (West Nile virus).
For test [2], the target named is DENV1 reporter virus particles (RVPs) (Dengue virus serotype 1).
Test [3] addresses DENV3 reporter virus particles (RVPs) (Dengue virus serotype 3).
Test [4] has as its target DENV4 reporter virus particles (RVPs) (Dengue virus serotype 4).
Test [5] concerns the target Zika virus (ZIKV) reporter virus particles (RVPs) (Zika virus).

In test [1], WNV-specific mAb CR4354 (antibody) showed an IC50 (neutralization) of 0.007 µg/mL.
On to monoclonal antibody C10, for which the IC50 (neutralization) in test [2] turned out to be 0.352 µg/mL; in test [3], 0.753 µg/mL; in test [4], 0.038 µg/mL; in test [5] it was 0.038 µg/mL. Also, the percent neutralization in test [2] is 52%; in test [3] it was -95%; in test [4], 98%; in test [1] it was -195%; in test [5] it was 99%.
As for monoclonal antibody E16, the percent neutralization in test [2] is -303%; in test [3], -415%; in test [4] it was -177%; in test [1], 99%; in test [5], -38%.
